Biological target: T1, GST∷CED-9(R211E, N212G) (C. elegans, UniProt P41958 1-280, R211E | N212G)
T1 sequence (looked up): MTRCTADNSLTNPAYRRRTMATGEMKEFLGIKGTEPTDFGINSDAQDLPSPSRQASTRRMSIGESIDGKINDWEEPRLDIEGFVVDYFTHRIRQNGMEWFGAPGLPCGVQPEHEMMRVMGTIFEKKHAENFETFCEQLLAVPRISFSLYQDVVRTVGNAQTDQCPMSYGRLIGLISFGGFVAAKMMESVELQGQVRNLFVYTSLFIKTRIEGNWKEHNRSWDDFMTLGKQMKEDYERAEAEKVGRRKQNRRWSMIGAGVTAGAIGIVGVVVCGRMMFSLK
Experiment: pull-down

B1: in vitro-translated, [35S]methionine-labeled FZO-1 protein (natural protein, C. elegans, UniProt Q23424 1-774, looked up)
chain: MSGTASLVHTLPASGDSNHRGLHSLKNSRRAADNEPLLRFREAKKVLGDVYGELKDNVAELEGVYKDIKENDFVSSEQREEIEAIGDSIKTIMDTFQRDNMKVVFFGRTSNGKSTTINAMLHEKVLPQGMGHTTCCFLQVEGSEGEVGHLQLDDNPQKIDMKMLGKIGHALSDENSDLPAMGQDSLLKVFHPKKSESGECRLLQNDVVILDSPGVDLSPEFDSWIDKHCLDADVFVLVSNAESTLTQAEKNFFLRVAKKLSKPNVFILNNRWDASAAETENIEDVKKQHLTRFRQFLVDELEVCSEREVNDRIFFVSSREVLESRLKARGLVQKAYQAEGHGTRALEFQNFERHFEHCISRSAIHTKFEAHNRRAHEMIGKMRLNLNSVLTSAAEQRSKLQNNLNESTRTFNECRVNFTQFEKAYREQTEQLRAEVHLKVSADFFEEIARLDAIIDRFEQPFDGSSSGMTKYKEDLAIFVDKCLSSDLEARCTGGLMSRIWNLENDMFQYVTKILAEPYQNKLEEVWRYRAPFKFSICVDVPALVNDFHEDLEFRFTFGLHAIIRRIIAYRSGQPVTAINTNLLTPLSLKQQSEKNSVRDAEASAASEEQAMMTQMVLTSAAFLANGSLGVLVVGGIVYKAVGWRVIAVGGAAYAGLYAWERMRWNSGAKEQHLKEQFRSHLAARMQQVSTAHTHHCETQAIREMDQVFDGLKATVGGVHREMKNDLDVQKTQIDAVDSTIRTLGTIKGKAVFLLRNLEQFASSYLRSDSPPTP
modifications: [35S]methionine-labeled
fold lower affinity than wild-type CED-9: 3 fold

From PMC2733758 (The Journal of Cell Biology, 2009)
